The numbers were not newly measured in patent publication US20180369330A1, “METHODS AND COMPOSITIONS USING INTEGRIN-BASED THERAPEUTICS” (La Jolla Institute for Allergy and Immunology, priority 2016, published 2018), which cites them from elsewhere.

The conditions of series [1]: patients, clinical trials or clinical use.
A further series addresses T1, αVβ3 (Homo sapiens, UniProt P05106+P06756).
T1 construct: host or cells: patients with glioblastoma (cited trials)
The following applies: patients with glioblastoma.

T1 sequence (P06756 31-889 limits assumed): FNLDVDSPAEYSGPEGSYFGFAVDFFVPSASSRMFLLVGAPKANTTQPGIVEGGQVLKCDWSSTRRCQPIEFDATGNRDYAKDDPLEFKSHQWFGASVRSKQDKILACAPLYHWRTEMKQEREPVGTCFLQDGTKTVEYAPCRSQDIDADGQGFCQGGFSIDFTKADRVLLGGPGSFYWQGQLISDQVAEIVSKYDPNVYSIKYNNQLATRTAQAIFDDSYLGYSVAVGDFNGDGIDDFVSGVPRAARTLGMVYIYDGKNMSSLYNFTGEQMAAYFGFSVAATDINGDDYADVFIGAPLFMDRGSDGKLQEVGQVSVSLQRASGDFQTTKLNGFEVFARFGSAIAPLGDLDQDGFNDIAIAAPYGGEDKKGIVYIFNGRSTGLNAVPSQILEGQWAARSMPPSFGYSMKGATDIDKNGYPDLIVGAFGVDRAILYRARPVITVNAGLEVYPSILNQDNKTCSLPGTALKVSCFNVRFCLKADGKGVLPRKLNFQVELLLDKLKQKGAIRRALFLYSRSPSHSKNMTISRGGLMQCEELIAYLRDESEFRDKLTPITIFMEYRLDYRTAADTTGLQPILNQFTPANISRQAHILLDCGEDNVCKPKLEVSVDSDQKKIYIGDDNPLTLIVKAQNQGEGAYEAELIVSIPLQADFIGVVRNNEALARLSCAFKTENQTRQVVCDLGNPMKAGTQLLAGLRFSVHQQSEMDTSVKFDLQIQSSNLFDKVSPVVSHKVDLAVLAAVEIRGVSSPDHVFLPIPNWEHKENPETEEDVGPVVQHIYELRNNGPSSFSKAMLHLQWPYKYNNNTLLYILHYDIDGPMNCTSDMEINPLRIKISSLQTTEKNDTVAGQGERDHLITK
T1 sequence (P06756 891-1048 limits assumed): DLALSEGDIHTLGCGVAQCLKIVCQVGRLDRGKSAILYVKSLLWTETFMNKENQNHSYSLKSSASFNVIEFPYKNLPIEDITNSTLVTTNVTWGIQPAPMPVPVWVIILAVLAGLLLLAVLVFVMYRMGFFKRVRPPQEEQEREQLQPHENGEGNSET
T1 sequence (P05106 27-788): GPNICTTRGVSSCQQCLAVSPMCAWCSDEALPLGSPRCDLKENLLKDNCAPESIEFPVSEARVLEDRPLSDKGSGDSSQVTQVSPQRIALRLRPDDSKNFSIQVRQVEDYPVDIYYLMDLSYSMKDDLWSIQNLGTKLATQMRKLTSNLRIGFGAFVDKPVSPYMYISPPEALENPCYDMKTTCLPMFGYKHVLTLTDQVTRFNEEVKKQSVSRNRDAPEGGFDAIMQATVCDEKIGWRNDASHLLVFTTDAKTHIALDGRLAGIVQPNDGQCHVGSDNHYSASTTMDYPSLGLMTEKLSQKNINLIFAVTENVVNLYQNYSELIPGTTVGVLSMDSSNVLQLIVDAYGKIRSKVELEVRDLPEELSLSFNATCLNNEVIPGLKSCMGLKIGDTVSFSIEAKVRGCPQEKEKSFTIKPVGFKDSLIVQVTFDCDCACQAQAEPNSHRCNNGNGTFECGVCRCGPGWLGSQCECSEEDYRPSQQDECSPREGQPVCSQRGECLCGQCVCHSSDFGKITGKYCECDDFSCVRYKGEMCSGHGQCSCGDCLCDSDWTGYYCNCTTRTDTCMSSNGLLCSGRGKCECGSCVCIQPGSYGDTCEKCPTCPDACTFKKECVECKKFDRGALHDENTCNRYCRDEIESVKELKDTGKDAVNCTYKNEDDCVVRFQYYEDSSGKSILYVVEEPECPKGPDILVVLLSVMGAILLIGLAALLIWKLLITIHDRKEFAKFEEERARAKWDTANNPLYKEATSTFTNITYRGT

With “Natalizumab: antibody targeting lymphocyte α4β1 and α4β7 integrins”, in series [1], the progressive multifocal leukoencephalopathy result is “rare but serious complication”. For “vedolizumab: antibody to a combinatorial epitope in α4β7”, the progressive multifocal leukoencephalopathy entry in series [1] was “has not been observed”. `CC(C)[C@H]1C(=O)N[C@@H](CCCN=C(N)N)C(=O)NCC(=O)N[C@@H](CC(=O)O)C(=O)N[C@H](Cc2ccccc2)C(=O)N1C` [Cilengitide]: on αVβ3, the “efficacy in limiting tumor angiogenesis and progression” value is reported as “has not shown efficacy”.
